The results in this text go back to patent US20040236073A1 (MEDICAL RESEARCH COUNCIL, published 2004).

Where a chain is given by its changes, count along the chain named. Names and notes keep the numbering of the source.

Data set [1] deals with the molecule itself. Nature of the data set: X-ray crystal structure of the NK1-heparin complex, crystal type A; self-association.
Data set [2] deals with the molecule itself. Description: BS3 cross-linking with western blot, and gel filtration, with equimolar 14-mer heparin; self-association. How it is done:
(§1) This was carried out by gel filtration chromatography and cross-linking experiments. For gel filtration, wt- or mutant NK1 (0.5 mg/ml) were incubated for 2 hours in the presence or absence of equimolar concentration of 14-mer heparin in phosphate buffered saline (PBS) adjusted to 300 mM NaCl. Samples were then loaded onto an HR30 Superdex 200 column (Ammersham Pharmacia Biotech) and eluted at 0.5 ml/min.
(§2) For cross-linking, 10 μl of wt- or mutant-NK1 (0.1 mg/ml) were incubated in the absence or presence of an equimolar concentration of 14-mer heparin in PBS. After 2 hours incubation at room temperature, 1 μl of crosslinker (BS³, Pierce) was added at 100 fold molar excess, the reaction was continued for 30 minutes and then quenched with 1 μl of 1M Tris-Cl, pH 7.4. Reaction products were loaded onto 15% SDS-polyacrylamide gels and blotted onto a nitrocellulose membrane (Schleicher & Schuell). […] HRP activity was detected after 3 further washes in PBS+0.2% Tween 20 using a chemiluminescent substrate (Pierce).
(§3) Cross-linking (Schwall et al., 1996) and gel filtration (Chirgadze et al., 1999) experiments were employed first in order to characterize heparin-mediated oligomerization of wt NK1 in solution. […] Cross-linked proteins were analyzed by western blotting and detected with an anti-HGF/SF polyclonal antibody (1W53). […]

Data set [3] deals with the molecule itself. Nature of the data set: BS3 cross-linking with western blot, and gel filtration (Superdex 200), with equimolar 14-mer heparin; self-association. On the procedure:
as §1, §2, §3
(A western blot detects proteins with antibodies after separation by electrophoresis.)

B1: wild-type NK1 fragment of HGF/SF (amino acids 28-210) (ligand)
chain: YAEGQRKRRNTIHEFKKSAKTTLIKIDPALKIKTKKVNTADQCANRCTRNKGLPFTCKAFVFDKARKQCLWFPFNSMSSGVKKEFGHEFDLYENKDYIRNCIIGKGRSYKGTVSITKSGIKCQPWSSMIPHEHSFLPSSYRGKDLQENYCRNPRGEEGGPWCFTSNPEVRYEVCDIPQCSEVE
notes: Expressed in P. pastoris; Forms a head-to-tail dimer in the crystals and a heparin-dependent dimer in solution; also called wt-NK1; wt NK1
B1: the binding result in data set [1] is on record as “binds”.

B2: NK1 mutant 1K2 (K170E:R181E) (ligand)
chain: B1 chain with K143E, R154E
notes: K domain reverse-charge mutant of NK1
On to B2, for which the binding result in data set [2] is “binds”.

B3: NK1 mutant HP11 (R73E:R76E) (ligand)
chain: B1 chain with R46E, R49E
notes: N domain reverse-charge mutant of NK1; Expressed in P. pastoris
As to B3, the binding result in data set [3] is listed as “no binding”.

B4: NK1 mutant 1K1 (K132E:R134E) (ligand)
chain: B1 chain with K105E, R107E
notes: as for B2
Turning to B4, in data set [2], the binding result is listed as “binds”.
